B1: antibody 10F6 (antibody, V domains shown)
VH: QIQLVQSGPELKKPGETVRISCKASGYTFTIAGMQWVQKMPGKGLKWIGWINTHSGVPKYAEDFKGRFAFSLETSANIAYLQISNLKNEDTATYFCARGGDEGVMDYWGQGTSVTVS
VL: DIVMTQSHKFMSTSVGDRVSITCKASQDVSTAVAWYHQKPGQSPKLLIYWASTRHTGVPDRFSGSGSGTDYTLTISALQAEDLALYYCQQHYNTPWTFGGGTKLEIK
notes: Parental murine monoclonal antibody
B2: antibody 2B12 (antibody, V domains shown)
VH: QIQLVQSGPELKKPGETVRISCKASGYTFTTAGMQWVQKTPGKGLKWIGWINSHSGVPKYAEDFKGRFAFSLETSASTAYLQISTLKNEDTATYFCARGGDEGVMDYWGQGTSVTVS
VL: DIVMTQSHKFMSTSLGDRVSFTCKASQDVSTAVAWYQQKPGQSPKLLIYWTSTRHTGVPDRFTGSGSGTDYTLTISSVQAEDLALYYCQQHYSTPWTFGGGTKLEIK
notes: as for B1
B3: antibody 13H1 (antibody, V domains shown)
VH: EVQLQQSGPELVKPGASMKISCKASHYSFIGYTMNWVKQRHGKNLEWIGLINPYNGDTTYNQKFKGKASLTVDKSSSTAYMEILSLTSEDSAVYYCARENWGYPYAMDYWGQGTSVTVS
VL: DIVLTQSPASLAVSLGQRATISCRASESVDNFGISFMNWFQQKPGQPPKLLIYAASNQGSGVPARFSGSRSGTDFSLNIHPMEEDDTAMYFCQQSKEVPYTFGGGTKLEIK
notes: as for B1
B4: antibody 20E9 (antibody, V domains shown)
VH: QVQLQQSGAEVARPGASVKLSCKSSGFTFTTYWMQWVKQRPGQGLEWIGAIYPGDGDTRYTQKFKGKATLTADKSSITAYMQLSSLASEDSAVYYCARRGDYGNYGMDYWGQGTSVTVSS
VL: DVLMTQTPLSLPVSLGDQASISCRSSQSIVHSNGNTYLEWYLQKPGQSPKLLIYKVSNHFSGVPDRFSGSGSGTDFTLKISRVEAEDLGVYYCFQGSHVPPTFGGGTKLEIK
notes: as for B1
B5: antibody 1E2 (antibody, V domains shown)
VH: QVQLQQSGAELVRPGVSVKISCKGSGYTFTDYAMNWVKQSHAKSLEWIGVISTYYGDANYNQKFKGKATMTVDKSSSTAYMELARLTSEDSAIYYCALIYYDYDGSYWGQGTTLTVS
VL: DVVMTQTPLSLPVSLGDQASISCRSSQSLVHSNGNTYLHWYLQKPGQSPKLLIYKVSNRFSGVPDRFSGSGSGTDFTLKISRVEAEDLGVYFCSQSTHVPPYTFGGGTKLEIK
notes: as for B1
B6: antibody 1C3 (antibody, V domains shown)
VH: QVQLQQSGAELARPGASVKLSCKASGYTFTSYWMQWVKQRPGQGLEWIGAIYPGDGDTRYTQKFKGKATLTADKSSSTAYMQLSSLASEDSAVYYCARRYDGYYHFDYWGQGTTLTVS
VL: DIVMTQSPSSLAVTAGEKVTMSCKSSQSLLWSVNQKNYLSWYQQKQRQPPKLLIYGASIRESWVPDRFTGSGSGTDFTLTISNVHAEDLAVYYCQHNHGSFLPLTFGSGTKLEIK
notes: Parental murine monoclonal antibody; also called 1C3 MAb

Legend:
[1] = molecular target: T1, KIR3DL2 mutant MD0/HLA1 (F9S; S11A) (human, UniProt P43630 22-455); experiment: binding to HEK-293T cells transfected with KIR3DL2 mutant
T1 construct: On transfected HEK-293T cells; also called Number 31 (DO-HLA1)

[2] = molecular target: T2, KIR3DL2 mutant M4 (S45I; V47I) (human, UniProt P43630 22-455); experiment: as above
T2 construct: On transfected HEK-293T cells; also called Number 4

[3] = molecular target: T3, KIR3DL2 mutant M1 + 2A1 (F50A; R53S) (human, UniProt P43630 22-455); experiment: as above
T3 construct: On transfected HEK-293T cells; also called Number 33 (1 + 2 A1)

[4] = molecular target: T4, KIR3DL2 mutant M1 (R13W; A25T; Q27R) (human, UniProt P43630 22-455); experiment: as above
T4 construct: On transfected HEK-293T cells; also called Mutant 1; Number 1

[5] = molecular target: T5, KIR3DL2 mutant M3 (R32H; G33R) (human, UniProt P43630 22-455); experiment: as above
T5 construct: On transfected HEK-293T cells; also called Mutant 3; Number 3

KIR3DL2 mutant M5 (P66T) = molecular target: T6, KIR3DL2 mutant M5 (P66T) (human, UniProt P43630 22-455); experiment: as above
T6 construct: On transfected HEK-293T cells; also called Number 5

[6] = molecular target: T7, KIR3DL2 mutant M1 + 2A5 (S140Q) (human, UniProt P43630 22-455); experiment: as above
T7 construct: On transfected HEK-293T cells; also called Number 37 (1 + 2 A5)

[7] = molecular target: T8, KIR3DL2 mutant M6 (R78H; L82P) (human, UniProt P43630 22-455); experiment: as above
T8 construct: On transfected HEK-293T cells; also called Mutant 6; Number 6

[8] = molecular target: T9, KIR3DL2 mutant MD0/HLA2 (H29S; F34A) (human, UniProt P43630 22-455); experiment: as above
T9 construct: On transfected HEK-293T cells; also called Number 32 (DO-HLA2)

[9] = molecular target: T10, wild-type human KIR3DL2 polypeptide (allele *002) (human, UniProt P43630 22-455); experiment: binding to HEK-293T cells transfected with wild-type KIR3DL2
T10 construct: also called WTaKIR3DL2; unmutated wild type KIR3DL2

[10] = molecular target: T11, KIR3DL2 mutant M1 + 2 (R13W; A25T; Q27R; I60N; G62S) (human, UniProt P43630 22-455); experiment: binding to HEK-293T cells transfected with KIR3DL2 mutant; '-' = substantially complete loss of binding
T11 construct: On transfected HEK-293T cells; also called Number 30 (1 + 2)

[11] = molecular target: T12, KIR3DL2 mutant M2 (I60N; G62S) (human, UniProt P43630 22-455); experiment: as above
T12 construct: On transfected HEK-293T cells; also called Mutant 2; Number 2

[12] = molecular target: T13, KIR3DL2 mutant M1 + 2A3 (P14S; S15A; H23S) (human, UniProt P43630 22-455); experiment: binding to HEK-293T cells transfected with KIR3DL2 mutant
T13 construct: On transfected HEK-293T cells; also called mutant 2A3; Number 35 (1 + 2 A3)

[13] = molecular target: T4, KIR3DL2 mutant M1 (R13W; A25T; Q27R); experiment: binding to HEK-293T cells transfected with KIR3DL2 mutant; '-' = substantially complete loss of binding
[14] = molecular target: T14, KIR3DL2 mutant M14 (W226A) (human, UniProt P43630 22-455); experiment: as above
T14 construct: On transfected HEK-293T cells; also called Mutant 14; Number 14

[15] = molecular target: T15, KIR3DL2 mutant M19 (A278H; L279S; V282E) (human, UniProt P43630 22-455); experiment: binding to HEK-293T cells transfected with KIR3DL2 mutant
T15 construct: On transfected HEK-293T cells; also called Number 19

[16] = molecular target: T16, KIR3DL2 mutant M13 (T212A; N218A) (human, UniProt P43630 22-455); experiment: as above
T16 construct: On transfected HEK-293T cells; also called Number 13

[17] = molecular target: T17, KIR3DL2 mutant M17 (P249A) (human, UniProt P43630 22-455); experiment: as above
T17 construct: On transfected HEK-293T cells; also called Mutant 17; Number 17

[18] = molecular target: T18, KIR3DL2 mutant M21 (C281Y; C315P) (human, UniProt P43630 22-455); experiment: as above
T18 construct: On transfected HEK-293T cells; also called Number 21

[19] = molecular target: T19, KIR3DL2 mutant M12 (I196A; L199A; N285A; S286A) (human, UniProt P43630 22-455); experiment: as above
T19 construct: On transfected HEK-293T cells; also called Mutant 12; Number 12

[20] = molecular target: T20, KIR3DL2 mutant M18 (A278H; L279A; C281A; V282A) (human, UniProt P43630 22-455); experiment: as above
T20 construct: On transfected HEK-293T cells; also called Number 18

[21] = molecular target: T11, KIR3DL2 mutant M1 + 2 (R13W; A25T; …); experiment: as above
[22] = molecular target: T12, KIR3DL2 mutant M2 (I60N; G62S); experiment: as above
[23] = molecular target: T13, KIR3DL2 mutant M1 + 2A3 (P14S; S15A; …); experiment: binding to HEK-293T cells transfected with KIR3DL2 mutant; '-' = substantially complete loss of binding

| Binder | binding result [1] | binding result [2] | binding result [3] | binding result [4] | binding result [5] | binding result (KIR3DL2 mutant M5 (P66T)) | binding result [6] | binding result [7] | binding result [8] | binding result [9] | binding result [10] | binding result [11] | binding result [14] | binding result [15] | binding result [16] | binding result [17] | binding result [18] | binding result [19] | binding result [20] | other results |
| --- | --- | --- | --- | --- | --- | --- | --- | --- | --- | --- | --- | --- | --- | --- | --- | --- | --- | --- | --- | --- |
| B1 | binds | binds | binds | binds | binds | binds | binds | binds | binds | binds | no binding | no binding | – | – | – | – | – | – | – | – |
| B2 | binds | binds | binds | binds | binds | binds | binds | binds | binds | binds | no binding | no binding | – | – | – | – | – | – | – | – |
| B3 | – | binds | binds | – | binds | – | – | binds | – | – | no binding | no binding | – | – | – | – | – | – | – | binding result [12]: binds; binding result [13]: no binding |
| B4 | – | – | – | – | – | – | – | – | – | binds | – | – | no binding | binds | binds | binds | binds | binds | binds | – |
| B5 | binds | binds | binds | binds | binds | binds | binds | binds | binds | binds | – | – | – | – | – | – | – | – | – | binding result [21]: binds; binding result [22]: binds; binding result [23]: no binding |
| B6 | – | – | – | – | – | – | – | – | – | binds | – | – | no binding | binds | binds | binds | binds | binds | binds | – |
